Source: paper PMC10050374
Values joined by “and” are separate entries in the source; they are usually repeats but may differ in a detail not shown here. Identical values can stand only once.

Target: pyruvate kinase M2 (mouse (endogenous in kidney tissue)) (UniProt P52480)
Assay: cross-linking; mouse kidney tissue incubated in 250 uM disuccinimidyl suberate (DSS) for 30 min at room temperature, 8% SDS-PAGE, Western blot for PKM2; control mice, HFD-STZ-induced DN mice, and mice given acrolein scavengers (NAC, hydralazine, carnosine)

pyruvate kinase M2, P52480 1-531 (enzyme), sequence (P52480 whole entry): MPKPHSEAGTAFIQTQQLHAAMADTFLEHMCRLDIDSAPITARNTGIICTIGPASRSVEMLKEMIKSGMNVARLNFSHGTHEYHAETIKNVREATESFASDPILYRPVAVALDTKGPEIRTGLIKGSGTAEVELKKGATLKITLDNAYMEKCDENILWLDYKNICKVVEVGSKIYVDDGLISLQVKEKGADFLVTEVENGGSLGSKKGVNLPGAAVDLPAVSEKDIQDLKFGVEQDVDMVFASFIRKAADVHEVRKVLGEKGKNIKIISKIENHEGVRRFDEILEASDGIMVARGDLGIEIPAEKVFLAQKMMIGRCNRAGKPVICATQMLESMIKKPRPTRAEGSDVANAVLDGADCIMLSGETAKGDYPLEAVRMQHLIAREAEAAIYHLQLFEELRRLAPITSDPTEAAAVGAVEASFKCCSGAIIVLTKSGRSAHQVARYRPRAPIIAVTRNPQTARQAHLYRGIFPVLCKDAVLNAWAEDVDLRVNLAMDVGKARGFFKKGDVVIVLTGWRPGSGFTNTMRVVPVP

stoichiometry N: 2 and 4
Substance: pyruvate kinase M2, P52480 1-531 (enzyme)
